Source: the supplement of paper PMC9112550, “Optimization of the antimicrobial peptide Bac7 by deep mutational scanning” (BMC Biology, 2022)

System: Escherichia coli TOP10
Assay: shrunken log2 fold change of peptide-encoding DNA abundance (4.5 h post-induction vs induction); higher = less antimicrobial activity (less host growth inhibition)
Settings: time post-induction: 4.5 h; library: site-saturation at positions 5, 18, 19, 20
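Also: peptides expressed intracellularly from a pBAD plasmid library in pooled LB shake-flask culture, induced with 0.3% L-arabinose, DNA abundance read by NGS, three biological replicates, DESeq2 with apeglm shrinkage.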

Sequence | shrunken log2 fold change
RRIRPRPPRLPRPRPRPALIPRP | -0.0205
RRIRARPPRLPRPRPRPIPLPRP | 0.0456
RRIRSRPPRLPRPRPRPPRWPRP | 0.722
RRIRARPPRLPRPRPRPGGVPRP | 0.626
RRIRFRPPRLPRPRPRPYHKPRP | -0.6
RRIRARPPRLPRPRPRPKPFPRP | 0.0753
RRIRFRPPRLPRPRPRPNWNPRP | -0.42
RRIRCRPPRLPRPRPRPMKVPRP | -0.126
RRIRCRPPRLPRPRPRPVIAPRP | -0.2
RRIRPRPPRLPRPRPRPRTLPRP | 0.0704
RRIRDRPPRLPRPRPRPCCSPRP | 0.166
RRIRVRPPRLPRPRPRPEYTPRP | -0.0361
RRIRVRPPRLPRPRPRPRADPRP | 0.43
RRIRSRPPRLPRPRPRPLSDPRP | -0.0692
RRIRQRPPRLPRPRPRPHEEPRP | -0.0442
RRIRFRPPRLPRPRPRPHCEPRP | -0.0995
RRIRFRPPRLPRPRPRPERCPRP | 0.104
RRIRTRPPRLPRPRPRPPTMPRP | -0.0279
RRIRTRPPRLPRPRPRPQEFPRP | 0.0555
RRIRTRPPRLPRPRPRPPVRPRP | 0.558
RRIRERPPRLPRPRPRPNPNPRP | -0.365
RRIRIRPPRLPRPRPRPEYGPRP | -0.0842

Sequence | shrunken log2 fold change
RRIRTRPPRLPRPRPRPNVQPRP | -0.429
RRIRWRPPRLPRPRPRPPTRPRP | 0.578
RRIRTRPPRLPRPRPRPVIDPRP | -0.0797
RRIRRRPPRLPRPRPRPSYHPRP | -0.368
RRIRFRPPRLPRPRPRPGMHPRP | -0.24
RRIRPRPPRLPRPRPRPIQNPRP | -0.11
RRIRFRPPRLPRPRPRPGSSPRP | -0.0565
RRIRKRPPRLPRPRPRPRGMPRP | 0.357
RRIRVRPPRLPRPRPRPESQPRP | -0.0489
RRIRRRPPRLPRPRPRPYKRPRP | -0.238
RRIRSRPPRLPRPRPRPRACPRP | 0.403
RRIRIRPPRLPRPRPRPFLNPRP | -0.429
RRIRERPPRLPRPRPRPCQDPRP | -0.534
RRIRWRPPRLPRPRPRPWADPRP | 0.0109
RRIRCRPPRLPRPRPRPQGIPRP | 0.158
RRIRSRPPRLPRPRPRPIFSPRP | -0.617
RRIRDRPPRLPRPRPRPRETPRP | 0.567
RRIRCRPPRLPRPRPRPTCGPRP | 0.111
RRIRERPPRLPRPRPRPMAQPRP | 0.00812
RRIRIRPPRLPRPRPRPGDMPRP | -0.763
RRIRIRPPRLPRPRPRPDNFPRP | -0.0215
RRIRVRPPRLPRPRPRPEFIPRP | -0.176

Sequence | shrunken log2 fold change
RRIRTRPPRLPRPRPRPSYFPRP | -0.85
RRIRVRPPRLPRPRPRPLQNPRP | 0.0527
RRIRDRPPRLPRPRPRPHTFPRP | -0.111
RRIRYRPPRLPRPRPRPMPCPRP | -0.0166
RRIRQRPPRLPRPRPRPPTFPRP | 0.0128
RRIRPRPPRLPRPRPRPFRCPRP | 0.12
RRIRCRPPRLPRPRPRPVPIPRP | 0.0325
RRIRARPPRLPRPRPRPRWAPRP | 1.05
RRIRYRPPRLPRPRPRPQQRPRP | -0.261
RRIRLRPPRLPRPRPRPLNGPRP | -0.217
RRIRHRPPRLPRPRPRPACGPRP | 0.216
RRIRGRPPRLPRPRPRPAFEPRP | 0.414
RRIRIRPPRLPRPRPRPPWMPRP | -0.0904
RRIRMRPPRLPRPRPRPWNMPRP | -0.0747
RRIRVRPPRLPRPRPRPKLRPRP | 0.128
RRIRQRPPRLPRPRPRPLVGPRP | 0.38
RRIRPRPPRLPRPRPRPEYRPRP | 0.0278
RRIRHRPPRLPRPRPRPNHPPRP | -0.254
RRIRSRPPRLPRPRPRPAGKPRP | -0.284
RRIRYRPPRLPRPRPRPELMPRP | -0.128
RRIRVRPPRLPRPRPRPWVVPRP | -0.0754
RRIRFRPPRLPRPRPRPFINPRP | -0.874

Sequence | shrunken log2 fold change
RRIRGRPPRLPRPRPRPGNNPRP | -0.0385
RRIRQRPPRLPRPRPRPMHWPRP | 0.0747
RRIRFRPPRLPRPRPRPQWDPRP | -0.272
RRIRFRPPRLPRPRPRPYKFPRP | -0.228
RRIRRRPPRLPRPRPRPQMNPRP | -0.107
RRIRVRPPRLPRPRPRPIVKPRP | -0.0955
RRIRQRPPRLPRPRPRPVWNPRP | -0.344
RRIRQRPPRLPRPRPRPNCRPRP | 0.13
RRIRQRPPRLPRPRPRPMRSPRP | 0.196
RRIRCRPPRLPRPRPRPNMWPRP | -0.0109
RRIRVRPPRLPRPRPRPHGSPRP | -0.156
RRIRTRPPRLPRPRPRPERIPRP | -0.18
RRIRNRPPRLPRPRPRPSHHPRP | -0.421
RRIRYRPPRLPRPRPRPSRWPRP | 0.0398
RRIRRRPPRLPRPRPRPRKIPRP | 0.405
RRIRSRPPRLPRPRPRPHMFPRP | -0.428
RRIRPRPPRLPRPRPRPANLPRP | -0.12
RRIRIRPPRLPRPRPRPFLVPRP | -0.759
RRIRHRPPRLPRPRPRPSAVPRP | -0.341
RRIRLRPPRLPRPRPRPSQRPRP | -0.00321
RRIRARPPRLPRPRPRPCHAPRP | 0.284
RRIRHRPPRLPRPRPRPNKVPRP | -0.238

Sequence | shrunken log2 fold change
RRIRIRPPRLPRPRPRPLNHPRP | -0.458
RRIRNRPPRLPRPRPRPWYYPRP | -0.122
RRIRERPPRLPRPRPRPAASPRP | 0.141
RRIRYRPPRLPRPRPRPYCSPRP | -0.00208
RRIRTRPPRLPRPRPRPIFTPRP | -0.0602
RRIRGRPPRLPRPRPRPNSMPRP | 0.0537
RRIRDRPPRLPRPRPRPTILPRP | 0.242
RRIRRRPPRLPRPRPRPDICPRP | 0.0657
RRIRPRPPRLPRPRPRPIPPPRP | -0.0888
RRIRRRPPRLPRPRPRPCRIPRP | -0.0873
RRIRDRPPRLPRPRPRPFVGPRP | -0.0346
RRIRDRPPRLPRPRPRPGVAPRP | 0.76
RRIRWRPPRLPRPRPRPQHIPRP | -0.736
RRIRQRPPRLPRPRPRPWENPRP | 0.0728
RRIRMRPPRLPRPRPRPLCNPRP | 0.0857
RRIRQRPPRLPRPRPRPTVFPRP | -0.0987
RRIRNRPPRLPRPRPRPKDQPRP | -0.108
RRIRHRPPRLPRPRPRPFVLPRP | -0.0634
RRIRHRPPRLPRPRPRPVLYPRP | -0.317
RRIRIRPPRLPRPRPRPMFSPRP | -0.433
RRIRGRPPRLPRPRPRPWWHPRP | -0.22
